Experimental findings from paper PMC4072508, “Genome-Wide Prediction and Validation of Peptides That Bind Human Prosurvival Bcl-2 Proteins” (PLoS Computational Biology, 2014) are described below.

Assay [1] concerns the target T1, Mcl-1, Q07820.
T1 chain: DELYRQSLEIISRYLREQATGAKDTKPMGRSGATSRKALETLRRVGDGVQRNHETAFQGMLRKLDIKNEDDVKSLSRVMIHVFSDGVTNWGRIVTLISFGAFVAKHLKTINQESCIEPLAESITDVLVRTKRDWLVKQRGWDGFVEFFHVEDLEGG
Put plainly: peptide SPOT array, c-Myc-tagged receptor at 1 uM or 100 nM, anti-c-Myc-Cy3.

For assay [2], the target named is Bcl-xL, Q07817. The assay is described as above.
Bcl-xL, Q07817, sequence (Q07817 1-209): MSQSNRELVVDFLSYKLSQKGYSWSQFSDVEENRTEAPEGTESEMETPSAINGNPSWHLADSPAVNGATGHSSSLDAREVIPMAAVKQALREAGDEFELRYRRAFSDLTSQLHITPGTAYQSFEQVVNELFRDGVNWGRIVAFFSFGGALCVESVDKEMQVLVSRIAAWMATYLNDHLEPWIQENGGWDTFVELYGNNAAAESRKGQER

B1: MST1R (peptide)
chain: RDPQGWVAGNLSARLDGAAGFTLPGF
With B1, the SPOT signal as a fraction of Bim BH3's signal on the same receptor and array in assay [1] and in assay [2] was 0.02 in each case.

B2: TEP1 (peptide)
chain: AALFLHAGCQDLTAGEDGKVQVWSGS
As to B2, the SPOT signal as a fraction of Bim BH3's signal on the same receptor and array in assay [1] and in assay [2] was 0.02 each time.

B3: CCDC76 (peptide)
chain: KLPVVGIGKHDCGMATDLALRCLVET
As to B3, the SPOT signal as a fraction of Bim BH3's signal on the same receptor and array in assay [1] and in assay [2] was 0.01 each time.

B4: ADCY10 (peptide)
chain: EKVLIFGGDILKFAGDALLALWRVER
For B4, the SPOT signal as a fraction of Bim BH3's signal on the same receptor and array in assay [1] was determined as 0.02; in assay [2], 0.04.

B5: CPS1 (peptide)
chain: LRCEMASTGEVACFLEGIHTAFLKAM
On to B5, for which the SPOT signal as a fraction of Bim BH3's signal on the same receptor and array was found to be 0.03 in assay [1] and 0.02 in assay [2].

B6: CRTC1 (peptide)
chain: PSLSKELTSSLAGVLDVSFDSDSQFP
On to B6, for which the SPOT signal as a fraction of Bim BH3's signal on the same receptor and array was 0.01 in assay [1] and 0.02 in assay [2].

B7: CLTCL1 (peptide)
chain: FRFAQLCGLHDVIHADELEELMCYYQ
Take B7: the SPOT signal as a fraction of Bim BH3's signal on the same receptor and array in assay [1] and in assay [2] was 0.02 throughout.

B8: FLAD1 (peptide)
chain: LSPGRSVTAGDIIVGDEILKGHTQDT
Turning to B8, the SPOT signal as a fraction of Bim BH3's signal on the same receptor and array in assay [1] and in assay [2] was 0.01 each time.

B9: PPM1F (peptide)
chain: CALIAGATLHDAWLGDSQVILVQQGQ
For B9, the figures for the SPOT signal as a fraction of Bim BH3's signal on the same receptor and array in assay [1] and in assay [2] were 0.01 and 0.02, respectively.

B10: HAP1 (peptide)
chain: VEQFSEASQQDAELSEVLVLRLENYE
For the molecule B10, the SPOT signal as a fraction of Bim BH3's signal on the same receptor and array in assay [1] and in assay [2] was 0.02 each time.

B11: MLLT4 (peptide)
chain: KNIAGALAFWMANALELLNFIKQDRD
As to B11, the results for the SPOT signal as a fraction of Bim BH3's signal on the same receptor and array in assay [1] and in assay [2] were 0.02 and 0.03, respectively.

B12: MAPK8IP3 (peptide)
chain: HPRRESQVRQLAWILDGVWVSIRLDS
On to B12, for which the SPOT signal as a fraction of Bim BH3's signal on the same receptor and array in assay [1] and in assay [2] was 0.03 throughout.

B13: ATP2B1 (peptide)
chain: ALKKADVGFAMGIALTDVAKEASDII
Consider B13, for which the SPOT signal as a fraction of Bim BH3's signal on the same receptor and array in assay [1] worked out at 0.01; in assay [2] it was 0.02.

B14: CIITA (peptide)
chain: PPDAHVLGKALEAALQDFSLDLRSTG
For B14, the SPOT signal as a fraction of Bim BH3's signal on the same receptor and array was 0.02 in assay [1] and 0.01 in assay [2].

B15: SLC40A1 (peptide)
chain: AKFLLYLGHSLSTWGDRMWHFAVSVF
For the molecule B15, the SPOT signal as a fraction of Bim BH3's signal on the same receptor and array in assay [1] stood at 0.07; in assay [2] it was 0.1.

B16: EXOC5 (peptide)
chain: DEHISYVATKVCHLLDQLEGVNTPRQ
With B16, the SPOT signal as a fraction of Bim BH3's signal on the same receptor and array in assay [1] and in assay [2] was 0.02 in each case.

B17: GNB5 (peptide)
chain: SVRYYPSGDAFASGSDDATCRLYDLR
With B17, the SPOT signal as a fraction of Bim BH3's signal on the same receptor and array in assay [1] and in assay [2] was 0.02 in each case.

B18: MAPK8IP3 (peptide)
chain: HPRRESQVRQLAWIGDGVWVSIRLDS
Turning to B18, the SPOT signal as a fraction of Bim BH3's signal on the same receptor and array amounted to 0.02 in assay [1] and 0.03 in assay [2].

B19: TRO (peptide)
chain: SALETQVAAAVQALLDDYLAQLSLEP
In the case of B19, the SPOT signal as a fraction of Bim BH3's signal on the same receptor and array in assay [1] and in assay [2] was 0.02 throughout.

B20: BIRC6 (peptide)
chain: CGDLASLSIDDWTLGEEVDGRRLVVA
With B20, the SPOT signal as a fraction of Bim BH3's signal on the same receptor and array in assay [1] and in assay [2] was 0.02 each time.

B21: GLOD4 (peptide)
chain: VILADPDGHEDCFVGDEAFRELSKMD
For B21, the SPOT signal as a fraction of Bim BH3's signal on the same receptor and array in assay [1] and in assay [2] was 0.01 throughout.

B22: POLE (peptide)
chain: CILNSFYGYVDRKGARWYSMEMAGIV
Turning to B22, the SPOT signal as a fraction of Bim BH3's signal on the same receptor and array in assay [1] was 0.1; in assay [2], 0.09.

B23: SEH1L (peptide)
chain: RVSWNITGTVLASSGDDGCVRLWKAN
As to B23, the SPOT signal as a fraction of Bim BH3's signal on the same receptor and array turned out to be 0.08 in assay [1] and 0.3 in assay [2].

B24: HAP1 (peptide)
chain: VEQFSEASQQMAELSEVLVLRLENYE
B24: the SPOT signal as a fraction of Bim BH3's signal on the same receptor and array in assay [1] and in assay [2] was 0.02 throughout.

B25: NCOR2 (peptide)
chain: QQMHHNAATADAQRADMLRGLSPRES
Take B25: the SPOT signal as a fraction of Bim BH3's signal on the same receptor and array in assay [1] worked out at 0.01; in assay [2], 0.02.

B26: ADCY8 (peptide)
chain: RLAHEHHCLRIKILGDCYYCVSGLPE
Regarding B26, the SPOT signal as a fraction of Bim BH3's signal on the same receptor and array in assay [1] came to 0.02; in assay [2], 0.03.

B27: DIRC2 (peptide)
chain: IVGGCVVGIAMARFADFIRGMLKLIL
For the molecule B27, the SPOT signal as a fraction of Bim BH3's signal on the same receptor and array in assay [1] turned out to be 0.18; in assay [2] it was 0.25.

B28: PPM1F (peptide)
chain: CALIAGATLHVAWLGDSQVILVQQGQ
Turning to B28, the SPOT signal as a fraction of Bim BH3's signal on the same receptor and array in assay [1] is 0.01; in assay [2], 0.02.
